Experimental data from patent publication US20190352359A1 (IMMATICS BIOTECHNOLOGIES, published 2019).

target: T1, HLA-A*24; assay: UV peptide-exchange ELISA (anti-b2m); yield grade ++++ = >75%
T1 construct: Monomers captured on streptavidin plates; also called peptide-receptive MHC molecules; MHC complexes
Excerpt: Candidate peptides for T cell based therapies according to the present invention were further tested for their MHC binding capacity (affinity). The individual peptide-MHC complexes were produced by UV-ligand exchange, where a UV-sensitive peptide is cleaved upon UV-irradiation, and exchanged with the peptide of interest as analyzed. Only peptide candidates that can effectively bind and stabilize the peptide-receptive MHC molecules prevent dissociation of the MHC complexes. To determine the yield of the exchange reaction, an ELISA was performed based on the detection of the light chain (p2m) of stabilized MHC complexes. The assay was performed as generally described in Rodenko et al. (Rodenko et al., 2006)
96 well MAXISorp plates (NUNC) were coated over night with 2 ug/ml streptavidin in PBS at room temperature, washed 4× and blocked for 1 h at 37° C. in 2% BSA containing blocking buffer. Refolded HLA-A*02:01/MLA-001 monomers served as standards, covering the range of 15-500 ng/ml. Peptide-MHC monomers of the UV-exchange reaction were diluted 100-fold in blocking buffer. Samples were incubated for 1 h at 37° C., washed four times, incubated with 2 ug/ml HRP conjugated anti-β2m for 1h at 37° C., washed again and detected with TMB solution that is stopped with […]. Absorption was measured at 450 nm. Candidate peptides that show a high exchange yield (preferably higher than 50%, most preferred higher than 75%) are generally preferred for a generation and production of antibodies or fragments thereof, and/or T cell receptors or fragments thereof, as they show sufficient avidity to the MHC molecules and prevent dissociation of the MHC complexes.

Row | Binder | peptide exchange yield [%]
1 | SYTPLLSYI (also called SYTPLLSYI) [C1orf94-002] | > 75
2 | AWSPPATLF (also called AWSPPATLF) [LOXL4-002] | > 75
3 | FFLQESPVF (also called FFLQESPVF) [ABCC11-004] | > 75
4 | IYTFSNVTF (also called IYTFSNVTF) [BTN1-003] | > 75
5 | VYSDRQIYLL (also called VYSDRQIYLL) [ABCC11-006] | > 75
6 | LSSPVHLDF (also called LSSPVHLDF) [FCRL5-007] | > 75
7 | FWFDSREISF (also called FWFDSREISF) [OR51E2-002] | > 75
8 | AFQNVISSF (also called AFQNVISSF) [NMUR2-003] | > 75
9 | LYYGSILYI (also called LYYGSILYI) [OR9-001] | > 75
10 | TYSTNRTMI (also called TYSTNRTMI) [FLT3-013] | > 75
11 | IWPGFTTSI (also called IWPGFTTSI) [PIWIL1-003] | > 75
12 | VYSNPDLFW (also called VYSNPDLFW) [TRDV3-002] | > 75
13 | YYIGIVEEYW (also called YYIGIVEEYW) [HEPHL-008] | > 75
14 | AYAPRGSIYKF (also called AYAPRGSIYKF) [HHIPL2-001] | > 75
15 | IYSSQLPSF (also called IYSSQLPSF) [TFEC-004] | > 75
16 | VYLDEKQHAW (also called VYLDEKQHAW) [TCL1A-005] | > 75
17 | IYLLLPPVI (also called IYLLLPPVI) [OR51E2-004] | > 75
18 | TYIDTRTVFL (also called TYIDTRTVFL) [CAPN6-005] | > 75
19 | PYSIYPHGVTF (also called PYSIYPHGVTF) [F5-006] | > 75
20 | IFPKTGLLII (also called IFPKTGLLII) [MAGEA4-008] | > 75
21 | KFLGSKCSF (also called KFLGSKCSF) [HAS3-003] | > 75
22 | KYVDINTFRL (also called KYVDINTFRL) [MMP12-018] | > 75
23 | AYPQIRCTW (also called AYPQIRCTW) [FLT3-009] | > 75

Row | Binder | peptide exchange yield [%]
24 | FFYVTETTF (also called FFYVTETTF) [TERT-003] | > 75
25 | TQAGEYLLF (also called TQAGEYLLF) [FLT3-012] | > 75
26 | PEYSLPVLTF (also called PEYSLPVLTF) [PTP-040] | > 75
27 | AYVTEFVSL (also called AYVTEFVSL) [SCN3A-001] | > 75
28 | HYHAESFLF (also called HYHAESFLF) [HEPHL-003] | > 75
29 | YYIATMALI (also called YYIATMALI) [CHRNA9-004] | > 75
30 | IFLPFFIVF (also called IFLPFFIVF) [ADAM18-001] | > 75
31 | IYVSLAHVL (also called IYVSLAHVL) [ANO7-002] | > 75
32 | IYNEHGIQQI (also called IYNEHGIQQI) [COL11A1-003] | > 75
33 | QKYYITGEAEGF (also called QKYYITGEAEGF) [ESR1-009] | > 75
34 | RYLSVCERL (also called RYLSVCERL) [NKX-001] | > 75
35 | KIYTTVLFANI (also called KIYTTVLFANI) [NPFFR2-003] | > 75
36 | IYKFIMDRF (also called IYKFIMDRF) [FOXB1-001] | > 75
37 | RWLSKPSLL (also called RWLSKPSLL) [KBTBD8-004] | > 75
38 | FYFYNCSSL (also called FYFYNCSSL) [ERV-001] | > 75
39 | TYFFVDNQYW (also called TYFFVDNQYW) [MMP12-020] | > 75
40 | CYSFIHLSF (also called CYSFIHLSF) [NLR-006] | > 75
41 | IYNKTKMAF (also called IYNKTKMAF) [SLCO6-001] | > 75
42 | AYLQFLSVL (also called AYLQFLSVL) [GREB-002] | > 75
43 | QYLQQQAKL (also called QYLQQQAKL) [FOXB1-002] | > 75
44 | MYTIVTPML (also called MYTIVTPML) [OR1N1-001] | > 75
45 | YFLPGPHYF (also called YFLPGPHYF) [SOX30-001] | > 75
46 | VFPSVDVSF (also called VFPSVDVSF) [PTP-043] | > 75

Row | Binder | peptide exchange yield [%]
47 | MYDLHHLYL (also called MYDLHHLYL) [EPY-001] | > 75
48 | VYISDVSVY (also called VYISDVSVY) [CLECL-003] | > 75
49 | DYLLSWLLF (also called DYLLSWLLF) [CNR2-003] | > 75
50 | LYAPTILLW (also called LYAPTILLW) [AFP-001] | > 75
51 | LYMSVEDFI (also called LYMSVEDFI) [STK31-001] | > 75
52 | ISWEVVHTVF (also called ISWEVVHTVF) [HMCN1-008] | > 75
53 | QRYGFSSVGF (also called QRYGFSSVGF) [RHBG-001] | > 75
54 | IYPEAIATL (also called IYPEAIATL) [SLC6A3-002] | > 75
55 | LYPDSVFGRLF (also called LYPDSVFGRLF) [SMC1B-003] | > 75
56 | VYAFMNENF (also called VYAFMNENF) [QRFPR-004] | > 75
57 | PYWWNANMVF (also called PYWWNANMVF) [NOTU-001] | > 75
58 | IFIPATILL (also called IFIPATILL) [ACSM1-001] | > 75
59 | KYLITTFSL (also called KYLITTFSL) [NLRP2-008] | > 75
60 | VLPLHFLPF (also called VLPLHFLPF) [HBG2-001] | > 75
61 | LYTVPFNLI (also called LYTVPFNLI) [SLC45A2-006] | > 75
62 | LYICKVELM (also called LYICKVELM) [CTL-001] | > 75
63 | TYATHVTEI (also called TYATHVTEI) [CCR8-004] | > 75
64 | RYFIAAEKILW (also called RYFIAAEKILW) [HEPHL-005] | > 75
65 | FYNRLTKLF (also called FYNRLTKLF) [OFCC-001] | > 75
66 | ALMSAFYTF (also called ALMSAFYTF) [MMP11-020] | > 75
67 | MLPEASLLI (also called MLPEASLLI) [NLRP4-005] | > 75
